Results taken from US20160053242A1, “THERMOSTABLE NUCLEASE” (priority 2013, published 2016).

Key:
[1] = Active two-dimensional gel electrophoresis (isoelectric point); format: physicochemical; settings: partially purified crude extracts of CCRI-10035 heated at 80° C. for 1 h; 2D gel
Description: Protein concentration was measured by the method of Bradford. An 18 cm Immobiline™ pH 4-7 DryStrip was applied. Proteins (200 μg) were diluted in T8 buffer (7 M Urea, 3% W/V CHAPS; 3-[(3-cholamidopropyl)dimethylammonio]-1-propanesulfonate, 20 mM DTT; dithiothreitol, 5 mM TCEP; tris(2-carboxyethyl)phosphine hydrochloride) and precipitated with 2-D clean-up kit (Amersham Biosciences) to remove substances interfering with isoelectric focusing (IEF) such as detergents, salts, lipids, phenolic and nucleic acids. IEF was carried out using IPTGhor IEF system (Amersham Biosciences) for the first dimension as recommended by the manufacturer. After first dimension, the strip was cut 5 cm from (+) terminal and 7 cm from (−) terminal. The cut strip was linked with agarose onto 12% SDS-PAGE containing 20 μg/ml dsDNA calf thymus DNA (Calbiochem). Markers and proteins were prepared according to the manufacturer's instructions on Whatman paper and run alongside the cut strip. After electrophoresis, the gel was rinsed with water, and placed into the gel incubation buffer (20 mM Tris-HCl, pH 9.08, 20 mM MgCl2). Two hours later, the gel was rinsed again and incubated in the gel incubation buffer overnight at 37° C. […] Trypsin fragmentation results were analyzed using Mascot software (Matrix Science) for peptide identification. […]

calf thymus ssDNA = assay: Assay of nuclease activity, substrate specificity: ssDNA; settings: no metal ion added
Description: (§1) Standard (20 μl) reaction mixture contained 2 μg of calf thymus dsDNA in activity buffer (20 mM Tris-HCl, 20 mM MgCl2 at pH 7.24). When required, several concentrations of alternative divalent cations, BaCl2, CaCl2, NaCl, MnSO4, NiSO4, MgCl2, CoCl2, KCl, were tested and the effects of other compounds (0.1, 0.25, 0.5 and 1 mg/ml BSA, 0.05, 0.1, 0.5 and 1 mM dNTPs, 2, 5, 10, 20, 50, 100 mM EDTA, 5, 15, 30, 50% glycerol, 0.1, 0.25, 0.5 and 1% SDS, and 1, 2, 3, 4, 5, 6, 7 and 8 M urea) were investigated. […] In all cases, the reaction was started by the addition of 2 μl of nickel column purified enzyme, and terminated by adding 4 μl of agarose gel loading buffer (0.1 M EDTA, pH 8.0, 0.05% bromophenol blue, 50% glycerol). Nuclease activity was evaluated by assessing DNA degradation level on gel electrophoresis (1.2% agarose, with 0.25 μg/ml of ethidium bromide, at 170 V for 30 min, in Tris-borate EDTA buffer).

[2] = system: plasmid DNA pET-24a(+) (closed circular double stranded); assay: Assay of nuclease activity, substrate specificity: plasmid DNA; settings: no metal ion added
Description: as §1

calf thymus dsDNA = assay: Assay of nuclease activity, DNA degradation level on agarose gel
Description: as §1

[3] = digestion of calf thymus dsDNA at 37° C.

B1: Nucyep: thermostable non-specific nuclease from Yersinia enterocolitica subsp. palearctica; 283-amino-acid protein, SEQ ID NO. 6 (protein)
chain: MKFNLIKLLPVLLLTACTTTDHSMSAPKTILSAPTVTEQNLPAAAIDNCLVGCPTGGSDQTVIRDVYTLNNNSHTKFANWVAYKVTKSSQASNHPRKWAQDPDLPDSDTLAPADYTGANQKLAVDRGHQAPLSLLAGNEDSQALNYLSNITPQKAALNQGAWVRLEDQERNLANRPDVTAVYSVTGPLFERHIATLPAKPTVEIPSGYWKIIFIGTSPDKGQYAAFLMDQNTAKSANFCDYQVNVDTIEAKTNPQLTIWSNLPADVAQIIKSQKGTLAQTIGCD
modifications: Yersinia enterocolitica sub. paleartica
- Isoelectric point of the spot with heat-stable nuclease activity [1]: about 5.2
- Nuclease activity on ssDNA without addition of metal ions (calf thymus ssDNA): able to degrade
- Nuclease activity on plasmid (circular ds) DNA without addition of metal ions [2]: but not the circular dsDNA or RNA
- Effect of 2 mM Ca2+ on nuclease activity (calf thymus dsDNA; 2 mM Ca2+): inhibited
- Effect of 2 mM CuSO4 on nuclease activity (calf thymus dsDNA; 2 mM CuSO4): inhibited
- Effect of 2 mM ZnCl2 on nuclease activity (calf thymus dsDNA; 2 mM ZnCl2): inhibited
- Effect of 0.1% SDS on nuclease activity (calf thymus dsDNA; 0.1% SDS): inhibited
- Effect of 100 mM EDTA on nuclease activity (calf thymus dsDNA; EDTA 100 mM): inhibited
- Activity left after heating at 80° C. for 60 minutes (1 h) (calf thymus dsDNA; [3]): ~5%
- Activity left after heating at 100° C. for 20 minutes (calf thymus dsDNA; [3]): ~5%
- Optimum temperature (calf thymus dsDNA; examined within 0 to 100° C.): about 35 °C
- Activity after exposure to longer times at 100° C. (calf thymus dsDNA; longer than 20 minutes at 100° C., compared to undigested controls): no remaining nuclease activity
- Nuclease activity on dsDNA without addition of metal ions (calf thymus dsDNA; no metal ion added, linear dsDNA): able to degrade
